T1: RecU D88N D88N (Bacillus subtilis) (UniProt P39792)
T1 sequence: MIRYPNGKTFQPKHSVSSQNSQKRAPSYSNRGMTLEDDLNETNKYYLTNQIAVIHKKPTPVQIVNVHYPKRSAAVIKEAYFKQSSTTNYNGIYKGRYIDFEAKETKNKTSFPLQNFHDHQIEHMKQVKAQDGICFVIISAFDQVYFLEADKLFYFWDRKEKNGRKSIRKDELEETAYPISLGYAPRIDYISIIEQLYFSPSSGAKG

T2: RecU D88N (Bacillus subtilis, UniProt P39792 1-206, D88N)
T2 sequence: T1 sequence

B1: 12 bp palindromic duplex (dsDNA)
DNA 1: ACGCAATTGCGT
DNA 2: ACGCAATTGCGT
B2: RecU D88N, catalytically inactive mutant of the Holliday junction resolving enzyme RecU from Bacillus subtilis (enzyme, UniProt P39792 1-206, looked up)
chain: T1 sequence
notes: the N-terminal region (residues 1-33), the stalk (56-89) and the cap (34-55 and 90-199) are seen in the structure

Tests used:
[1] = target: T1, RecU D88N D88N (Bacillus subtilis); experiment: thermofluor; conditions: 1:1 molar ratio; Thermofluor: 100 mM MES pH 6.5, 5 ug RecU D88N per well, DNA 1:1 molar, Sypro orange, 25-100 C in 1 C steps; crystals: 0.1 M BICINE pH 9, 10% PEG 6000, 17 C …
RecU D88N = target: T2, RecU D88N; experiment: X-ray crystallography (3.2 A); 0.1 M BICINE pH 9, 10% PEG 6000; Thermofluor: 100 mM MES pH 6.5, 5 ug RecU D88N per well, DNA 1:1 molar, Sypro orange, 25-100 C in 1 C steps; crystals: 0.1 M BICINE pH 9, 10% PEG 6000, 17 C, protein:DNA 1:1.25; conditions: protein: recombinant; chain copies: 2; blunt; self-complementary, 2 strand copies
[2] = target: the molecule itself; experiment: crystal structure; RecU D88N mixed with 12 bp palindromic DNA at 1:1.25 molar ratio; crystals in 0.1 M BICINE pH 9, 10% PEG 6000, 17°C; 3.2 Å, space group R32, four RecU chains in the asymmetric unit

Molecule	binding signal [1]	further results
HJ 10 bp	6.7 delta Tm, C	–
HJ 11 bp	8.2 delta Tm, C	–
HJ 12 bp (HJ24?)	10.1 delta Tm, C	–
B1	–	binding result (RecU D88N): binds
B2	–	binding result [2]: binds
